Target: brain-derived neurotrophic factor
Test: native gel or EMSA

stoichiometry N (TrkB per BDNF dimer): 1
Substance: soluble, recombinant extracellular domain of tropomyosin receptor kinase B (from UniProt Q16620 32-430)

— article PMC5958903
